# T1: nephrin (human, UniProt O60500 23-1241)
# T1 construct: whole, on cells; Endogenous protein in fixed podocytes; also called NPHS1
# T1 sequence (looked up): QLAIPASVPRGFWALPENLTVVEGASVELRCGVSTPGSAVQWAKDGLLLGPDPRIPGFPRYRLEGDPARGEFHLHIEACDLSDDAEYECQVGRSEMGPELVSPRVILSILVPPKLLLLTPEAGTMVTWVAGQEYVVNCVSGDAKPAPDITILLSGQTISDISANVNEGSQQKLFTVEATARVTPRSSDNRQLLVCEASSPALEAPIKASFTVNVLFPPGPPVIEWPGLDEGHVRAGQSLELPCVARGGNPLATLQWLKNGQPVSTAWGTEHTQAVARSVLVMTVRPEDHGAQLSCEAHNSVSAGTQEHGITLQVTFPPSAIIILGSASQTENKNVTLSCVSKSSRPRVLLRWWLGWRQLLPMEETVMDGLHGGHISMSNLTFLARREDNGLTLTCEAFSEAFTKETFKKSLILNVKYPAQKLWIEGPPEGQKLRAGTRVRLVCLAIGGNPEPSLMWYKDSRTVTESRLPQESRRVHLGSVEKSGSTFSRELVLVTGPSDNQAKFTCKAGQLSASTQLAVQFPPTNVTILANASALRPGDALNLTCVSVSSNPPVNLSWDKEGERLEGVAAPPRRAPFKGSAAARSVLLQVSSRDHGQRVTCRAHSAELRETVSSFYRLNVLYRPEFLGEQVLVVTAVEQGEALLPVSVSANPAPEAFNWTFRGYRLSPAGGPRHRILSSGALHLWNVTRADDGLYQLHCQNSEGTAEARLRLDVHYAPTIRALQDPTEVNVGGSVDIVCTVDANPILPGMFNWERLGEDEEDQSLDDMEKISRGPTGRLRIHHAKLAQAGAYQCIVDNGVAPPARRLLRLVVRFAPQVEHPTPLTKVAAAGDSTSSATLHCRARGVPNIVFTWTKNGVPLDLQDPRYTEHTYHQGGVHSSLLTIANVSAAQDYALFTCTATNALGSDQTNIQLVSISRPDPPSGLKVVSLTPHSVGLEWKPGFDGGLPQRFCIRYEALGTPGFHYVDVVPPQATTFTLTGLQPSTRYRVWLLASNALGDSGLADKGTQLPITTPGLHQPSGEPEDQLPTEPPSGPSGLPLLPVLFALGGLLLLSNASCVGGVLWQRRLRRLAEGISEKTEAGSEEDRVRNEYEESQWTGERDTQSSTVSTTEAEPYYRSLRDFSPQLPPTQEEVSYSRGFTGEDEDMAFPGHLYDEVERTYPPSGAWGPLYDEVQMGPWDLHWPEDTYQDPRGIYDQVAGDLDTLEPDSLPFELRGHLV
# B1: anillin (ANLN), wild-type, endogenous in immortalized human podocytes (other)
# chain: MDPFTEKLLERTRARRENLQRKMAERPTAAPRSMTHAKRARQPLSEASNQQPLSGGEEKSCTKPSPSKKRCSDNTEVEVSNLENKQPVESTSAKSCSPSPVSPQVQPQAADTISDSVAVPASLLGMRRGLNSRLEATAASSVKTRMQKLAEQRRRWDNDDMTDDIPESSLFSPMPSEEKAASPPRPLLSNASATPVGRRGRLANLAATICSWEDDVNHSFAKQNSVQEQPGTACLSKFSSASGASARINSSSVKQEATFCSQRDGDASLNKALSSSADDASLVNASISSSVKATSPVKSTTSITDAKSCEGQNPELLPKTPISPLKTGVSKPIVKSTLSQTVPSKGELSREICLQSQSKDKSTTPGGTGIKPFLERFGERCQEHSKESPARSTPHRTPIITPNTKAIQERLFKQDTSSSTTHLAQQLKQERQKELACLRGRFDKGNIWSAEKGGNSKSKQLETKQETHCQSTPLKKHQGVSKTQSLPVTEKVTENQIPAKNSSTEPKGFTECEMTKSSPLKITLFLEEDKSLKVTSDPKVEQKIEVIREIEMSVDDDDINSSKVINDLFSDVLEEGELDMEKSQEEMDQALAESSEEQEDALNISSMSLLAPLAQTVGVVSPESLVSTPRLELKDTSRSDESPKPGKFQRTRVPRAESGDSLGSEDRDLLYSIDAYRSQRFKETERPSIKQVIVRKEDVTSKLDEKNNAFPCQVNIKQKMQELNNEINMQQTVIYQASQALNCCVDEEHGKGSLEEAEAERLLLIATGKRTLLIDELNKLKNEGPQRKNKASPQSEFMPSKGSVTLSEIRLPLKADFVCSTVQKPDAANYYYLIILKAGAENMVATPLASTSNSLNGDALTFTTTFTLQDVSNDFEINIEVYSLVQKKDPSGLDKKKKTSKSKAITPKRLLTSITTKSNIHSSVMASPGGLSAVRTSNFALVGSYTLSLSSVGNTKFVLDKVPFLSSLEGHIYLKIKCQVNSSVEERGFLTIFEDVSGFGAWHRRWCVLSGNCISYWTYPDDEKRKNPIGRINLANCTSRQIEPANREFCARRNTFELITVRPQREDDRETLVSQCRDTLCVTKNWLSADTKEERDLWMQKLNQVLVDIRLWQPDACYKPIGKP
# notes: Endogenous intracellular protein stained in fixed, permeabilised immortalized human podocytes
# Target: T1, nephrin
# Assay: only co-localisation by immunofluorescence in immortalized human podocytes (FIG. 3); no direct binding assay
# Method: Endogenous anillin protein staining is shown in red. Co-immunolabeling for anti-CD2AP (A) anti-RhoA (B), anti-nephrin (C) anti-INF2 (D) and anti-F-actin are shown in green. Cell nuclei are stained with DAPI (blue). Anillin is strongly expressed in both the nucleus and cytoplasm and co-localizes with CD2AP, RhoA, nephrin, INF2, F-actin and TRPC6, in cultured immortalized human podocytes. IgG served as the control antibody (0).
# Immortalized human podocytes were cultured on collagen I-coated coverslips (BD Biosciences) and treated as indicated. Cells were then fixed with 4% paraformaldehyde in PBS (Sigma). Podocytes were then washed twice with ice cold PBS prior to permeabilization with 0.1% Triton X-100 in PBS. Cells were then washed with ice cold PBS twice and blocked with buffer containing 5% goat serum prior to incubation with rabbit polyclonal Anillin antibody (Bethyl Laboratories, Montgomery, Tex.), mouse monoclonal Rho A antibody (Abeam), mouse monoclonal nephrin antibody (Abgent, Inc, San Diego, Calif.), and mouse polyclonal CD2AP antibody (Santa Cruz Biotechnologies, Santa Cruz, Calif.) overnight at 4° C. Cells were then washed with ice cold PBS and secondary Alexa Flora 488 antibody was applied (invitrogen) at a concentration of 1:1,000 for 1 hour at room temperature. […]
binder,measurement,value
B1,binding result,binds

# From patent publication US20140106352A1 (DUKE UNIVERSITY, published 2014)
